{"source": "paper PMC2802452", "target": "HLA-A2-mCFP (human)", "experiment": "FRET or BRET", "data": [{"binder": "Bap31-mYFP-KKEE (natural protein) MSLQWTAVATFLYAEVFVVLLLCIPFISPKRWQKIFKSRLVELLVSYGNTFFVVLIVILVLLVIDAVREIRKYDDVTEKVNLQNNPGAMEHFHMKLFRAQRNLYIAGFSLLLSFLLRRLVTLISQQATLLASNEAFKKQAESASEAAKKYMEENDQLKKGAAVDGGKLDVGNAEVKLEEENRSLKADLQKLKDELASTKQKLEKAENQVLAMRKQSEGLTKEYDRLLEEHAKLQAAVDGPMDKKEE", "values": [{"measurement": "FRET efficiency at A:D of 1", "result": 5, "unit": "%"}, {"measurement": "fold FRET at A:D 1:1 after feeding Tax peptide, against controls", "result": 2, "unit": "fold"}]}]}
